The values below come from the RNAGym collection of RNA variant scans (doi:10.7554/elife.90254).

B1: LINE1-full (parent)
chain: UACGUAGGUGGUUUUCCCCUGAUAGUGCUAAGGGGGCCUGGAAGUUUGGACUGGGCAGAGCUCAACACAGCGUGGCAAAGUGGCUGUGGCUAGACUGCCUCUCUGGAUUCCUCGUCACUCAGCAGGGCAUCUCUGAGAGAAAUGCC

The data set covers variants of B1. In words: self-cleavage, relative activity (ratio to wild type); higher = more cleavage; in vitro, sequencing; the parent is a self-cleaving ribozyme.
Regarding A43G U62A, the self-cleavage was 0.1.
Take U45C A140G: the self-cleavage stood at 1.41.
Next, U45C A140C: 2.27.
As to A43G A77U, the self-cleavage was found to be 1.05.
As to U45C G135A, the self-cleavage is 1.28.
Next, U45C U130G: 1.9; U45C U130A: 1.66.
The result for U45C U130C reads 1.39.
Next, U46A C146A: 1.53; U45A U87A: 0.09; A43G A59G: 0.14.
In the case of A43G A94C, the self-cleavage stood at 0.14.
Next, A43G A94U: 0.16.
The result for G44A A79G reads 0.99; that for G44A A79U, 1.89.
Next, U45G A142G: 2.33; G44A U52C: 1.32; U45C U112C: 1.27.
In the case of U45C U81A, the self-cleavage came to 2.03.
Turning to G44A U46A, the self-cleavage is 0.79.
Next, U45C U119A: 1.3.
As for U45C U119C, the self-cleavage was 2.12.
The result for U46A A117G reads 1.78.
Next, U46A A117U: 1.46; A43G U73G: 1.56.
U45C G48U: the self-cleavage came out at 0.9.
U45G A107U: the self-cleavage amounted to 1.05.
Regarding U45C C111U, the self-cleavage was found to be 1.51.
The result for A43U G89A reads 0.06.
The result for A43U G54A reads 0.56; that for A43G C110U, 1.8.
Turning to A43G G93U, the self-cleavage was 0.05.
The result for A43G U134G reads 0.97.
Take A43G U134C: the self-cleavage came to 1.09.
Next, U45G G88U: 0.06; G44U U109C: 1.31.
Next, U45C U132G: 1.33; U45A A117G: 1.48; U45A A117U: 0.76.
Regarding U45C C120U, the self-cleavage came out at 1.45.
As to A43C U112C, the self-cleavage was found to be 2.1.
Next, U46A A77U: 1.24; U45C U115C: 2.14.
Take U45C U115G: the self-cleavage stood at 2.1.
Next, U45C U73G: 1.22; A43G A141G: 1.29.
Take A43G A141U: the self-cleavage came out at 1.61.
Next, U45C A67U: 0.12; A43U U52A: 1.04; U45G U47C: 1.92.
Next, U45A U132C: 1.93.
Next, A43U G86U: 0.08; U45G A57G: 0.9; A43G U100A: 0.89.
With A43U U134A, the self-cleavage stood at 1.13.
Turning to U45G U130C, the self-cleavage came to 2.36.
With U45C C116U, the self-cleavage was found to be 1.36.
Take U45C C131U: the self-cleavage is 0.93.
Take A43G U143A: the self-cleavage was 1.24.
For the variant A43U U85C, the self-cleavage was determined as 0.16.
Turning to G44U A142G, the self-cleavage stood at 1.68.
The result for U46A A59G reads 0.07; that for U45C A141G, 1.37.
U46A G58A: the self-cleavage amounted to 0.04.
On to U45C G139C, for which the self-cleavage was found to be 1.63.
As to G44C A141G, the self-cleavage worked out at 1.03.
On to U45A A64U, for which the self-cleavage came out at 0.37.
As to A43G C95U, the self-cleavage worked out at 0.16.
Take U45A U109A: the self-cleavage is 0.94.
Next, U46A A121G: 1.15; U46A A107C: 1.99.
Next, U45G A50G: 0.89; A43U A64G: 0.42.
Turning to G44A A50G, the self-cleavage was determined as 0.9.
Next, A43G A67C: 0.05.
For the variant A43G A67G, the self-cleavage turned out to be 0.46.
Next, U45C A77G: 2.62; U45A U112C: 1.36.
Next, A43U U102G: 0.75; A43U U102C: 0.25.
For A43G G60A, the self-cleavage was found to be 0.04.
On to U46A A50G, for which the self-cleavage amounted to 0.87.
The result for A43G U91A reads 0.89.
The result for A43G G75U reads 0.99; that for G44A C90G, 0.01.
On to U45A C146U, for which the self-cleavage was determined as 1.37.
Next, U45C G70U: 0.06.
On to A43G C71U, for which the self-cleavage is 0.15.
Next, A43U G122A: 1.02; U45C A64G: 0.22; U45A G89C: 0.31.
Next, U45G G83A: 0.54; A43G U87G: 0.16.
Regarding A43G U87A, the self-cleavage is 0.08.
The result for A43G C63G reads 0.1.
The result for U46A A64G reads 0.18.
For U46A A64U, the self-cleavage worked out at 0.46.
Consider G44U A107G, for which the self-cleavage was 1.7.
Regarding U45C A79C, the self-cleavage was determined as 1.23.
Next, A43C U119C: 1.62; U45A A129G: 1.26.
Next, U45G U112C: 1.38.
Next, U45A A78U: 1.99.
Take U45C A107G: the self-cleavage stood at 1.73.
The result for U45C U85C reads 0.17; that for A43U A94G, 0.12.
As for U46A G89C, the self-cleavage is 0.03.
Take G44A A64G: the self-cleavage turned out to be 0.33.
In the case of G44A A64U, the self-cleavage is 0.4.
Consider U45A A107G, for which the self-cleavage came to 1.44.
On to A43G A117U, for which the self-cleavage came out at 1.93.
As for A43G A117G, the self-cleavage is 0.71.
Next, U46A A138G: 1.66; U45C U47G: 1.09.
In the case of U45C U47C, the self-cleavage amounted to 1.23.
Regarding A43G U115G, the self-cleavage was 1.02.
A43G U115C: the self-cleavage was determined as 1.52.
The result for A43G U115A reads 0.95; that for A43U U46C, 1.23.
Take A43U U46G: the self-cleavage stood at 1.37.
Next, U45G A117G: 0; A43G A140G: 1.35; U45C G105A: 1.34.
The result for A43U U104C reads 1.67.
With U45C U52A, the self-cleavage turned out to be 1.33.
For the variant A43U A117G, the self-cleavage stood at 1.25.
For the variant U45C G60C, the self-cleavage is 0.03.
The result for U45C G60U reads 0.02; that for U45A A57U, 0.08.
Next, U45A A57G: 1.01; A43G G54A: 0.41.
A43G A129U: the self-cleavage turned out to be 0.95.
A43G A129G: the self-cleavage was 1.48.
U45C G137U: the self-cleavage was 1.23.
For U45G A92U, the self-cleavage was determined as 0.61.
With U46A C145U, the self-cleavage worked out at 1.52.
Next, A43U A141G: 1.38; A43U U47A: 1.44.
Next, A43U U47C: 2.03; U46A: 1.17.
The result for A43U U115A reads 1.6; that for A43G A50G, 1.24; that for A43G A50C, 1.73.
Take A43G A142G: the self-cleavage was determined as 1.5.
Next, U45A U62A: 0; U45A U62C: 0.03.
As to U45C A117U, the self-cleavage was determined as 1.36.
Regarding U45C A117C, the self-cleavage was 2.57.
The result for U45C G144U reads 1.42; that for G44A G89C, 0.04.
With G44A G89U, the self-cleavage turned out to be 0.02.
Next, A43U U45G: 2.34; U46A C51U: 1.35.
Turning to A43U G53C, the self-cleavage came to 1.03.
Consider A43G A79C, for which the self-cleavage turned out to be 2.63.
As to U45G U108C, the self-cleavage amounted to 1.91.
Next, U45G U81A: 1.82; A43G G89U: 0.04; U46A A65G: 0.02.
Next, A43U G82A: 1.4; A43G U96C: 0.09; A43U A50G: 1.29.
In the case of A43G U46A, the self-cleavage is 1.17.
Consider A43G G125A, for which the self-cleavage is 1.24.
The result for A43G G125U reads 1.02; that for U46A A78G, 0.69; that for U46A A78U, 2.19.
